Values of other authors as cited in publication PMC11507603.

Molecular target: Ubiquitin (UniProt P0CG48)
Test: SPR

Sequence of Epsin Ent1 ENTH (Q12518 8-146): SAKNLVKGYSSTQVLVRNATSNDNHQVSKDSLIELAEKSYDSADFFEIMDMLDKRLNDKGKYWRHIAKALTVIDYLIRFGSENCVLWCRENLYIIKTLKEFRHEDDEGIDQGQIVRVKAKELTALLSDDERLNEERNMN

Kd: 2300 µM
Substance: Epsin Ent1 ENTH (from UniProt Q12518)
